# Like-named read-outs stand apart in the source and are kept apart here.
# Tests used:
# [1] = target: hERG (Homo sapiens, UniProt Q12809); experiment: IonWorks Quattro hERG assay; format: cell-based; conditions: up to 10 uM
# [2] = test system: MCF-7 breast cancer cells; experiment: MCF-7 cell proliferation; format: cell-based
# Method: In an in vitro study, Conjugate 57 is given to MCF-7 breast cancer cells. Cell proliferation of the MCF-7 cells are measured.
# [3] = test system: panel of GPCRs (119 targets); experiment: Off-target binding to a panel of GPCRs; conditions: 1 uM concentration
# Method: To further study the off-target binding of Conjugate 57, the binding of Conjugate 57 to a panel of GPCRs (119 targets) was measured at 1 uM concentration. Conjugate 57 has no activity against the panel of GPCRs.
# [4] = test system: H69 tumors; experiment: PD studies with H69 model, PH3 and CC3 by Western blot and IHC; format: in vivo
# Method: PD studies were carried out with H69 model to determine the in vivo response of conjugate effects on tumor cells and timing/peak response. Conjugate 57 and Conjugate 57 in nanoparticles (Conjugate 57/NP20) were tested at 2 mg/kg. NP20 formulation has been described in EXAMPLE 2. Western blot and IHC staining were carried out to measure PH3 and CC3 levels.
# PH3 is correlated chromosome condensation during both mitosis and meiosis. […] As shown in Western Blot results in FIG. 18A, the peak response for PH3 occurs at 48 hours for both the conjugate and the conjugate in the nanoparticle. […] PH3 level was steady for Conjugate 57/NP20 samples.
# CC3 is a marker of apoptosis. It is the executioner of apoptosis and tightly regulated. A peak in activity is seen for both Conjugate 57 and Conjugate 57/NP20 at 72 hours (FIG. 19). The activity of Conjugate 57 is stronger as compared to Conjugate 57/NP20, consistent with the PH3 results.
# Cell arrest as indicated by PH3 levels peaked at 48 hr and apoptosis as indicated by CC3 levels peaked at 72 hr.
# [5] = Plasma pharmacokinetics; format: in vivo; conditions: for Vd: read-out: Vss
# Method: In this example, plasma pharmacokinetics of Conjugate 57 was studied in mouses, rats and dogs. Half-life, maximum plasma drug concentration (Cmax), drug clearance (CL), area under the curve time curve from time 0 to the last sampling time (AUC 0-t), and apparent volume of distribution at steady state (VSS) were measured.
# [6] = test system: IMR-32 cells; experiment: In vitro competitive assay in IMR-32 cells; format: cell-based; conditions: absence of octreotide
# Method: First, an in vitro competitive assay was conducted where IMR-32 cells were treated with Conjugate 57 in the absence or presence of an excess of octreotide. […] Pre-incubation with octreotide affected the inhibition.
# [7] = target: SSTR2 (Homo sapiens, UniProt P30874); experiment: SSTR2 receptor internalization in H524-MD tumor xenograft (IHC); format: in vivo; design: expressed in transfected cells
# SSTR2, sequence (P30874 whole entry): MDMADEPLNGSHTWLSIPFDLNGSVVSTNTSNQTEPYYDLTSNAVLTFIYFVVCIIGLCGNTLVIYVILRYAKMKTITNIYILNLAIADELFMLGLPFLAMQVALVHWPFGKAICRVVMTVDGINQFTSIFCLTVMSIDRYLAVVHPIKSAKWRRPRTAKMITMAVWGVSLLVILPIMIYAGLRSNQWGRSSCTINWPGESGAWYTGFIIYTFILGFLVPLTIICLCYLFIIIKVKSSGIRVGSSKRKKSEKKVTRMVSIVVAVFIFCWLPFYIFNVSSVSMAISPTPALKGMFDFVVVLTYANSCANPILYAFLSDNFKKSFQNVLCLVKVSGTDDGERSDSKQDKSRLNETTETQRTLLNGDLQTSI
# Method: SSTR2 receptor internalization was studied using Conjugate 57 in a highly expressing SSTR2 positive (SSTR2+) tumor xenograft: H524_MD tumor xenograft. Vehicle (0.1% Solutol/5% Mannitol), Conjugate 57 at 2 mg/kg, scrambled control (BT-984) at 2 mg/kg, and Octreotide at 1.4 mg/kg (ligand alone) were given to SSTR2+H524-MD tumor xenografts (n=3/group). Timepoints—0 hr (Vehicle), 15 mins, 1 hr, 4 hr, 24 hr and 72 hrs. SSTR2 scoring was done by immunohistochemistry (IHC) staining.
# [8] = test system: NCI-H524 human small cell lung cancer cells; experiment: cells; format: cell-based; conditions: NCI-H524 proliferation
# Method: Conjugates of the present invention were assessed in an in vitro assay evaluating inhibition of cell proliferation. NCI-H524 (ATCC) human small cell lung cancer cells were plated in 96 well, V-bottomed plates (Costar) at a concentration of 5,000 cells/well. 24 hours later, cells were treated with either conjugate for 2 hours and further incubated 70 hours, or for octreotide competition experiments, treated with 100 μM octreotide for 30 min, and then treated with conjugate for 2 hours, and further incubated for 70 hours. Conjugate starting dose was 20 μM and three fold serial dilutions were done for a total of ten points. After 2 hours of treatment, cells were spun down, the drug containing media was removed, and fresh complete medium was added and used to resuspend the cells, which were spun again. After removal of the wash media, the cells were resuspended in complete medium, and then transferred into white walled, flat bottomed 96 well plates. […] Proliferation was measured using CellTiter Glo reagent using the standard protocol (Promega) and a Glomax multi+ detection system (Promega). Percent proliferation inhibition was calculated using the following formula: % inhibition=(control−treatment)/control*100. Control is defined as vehicle alone. IC50 curves were generated using the nonlinear regression analysis (four parameter) with GraphPad Prism 6.
# [9] = test system: NCI-H69 SCLC tumors; experiment: H69 tumor DM-1 levels by LC/MS-MS; format: in vivo, mice; conditions: 1 mg/kg; 24 hour time point
# [10] = 2 mg/kg, H524-MD tumor xenografts
# hERG, sequence (Q12809 whole entry): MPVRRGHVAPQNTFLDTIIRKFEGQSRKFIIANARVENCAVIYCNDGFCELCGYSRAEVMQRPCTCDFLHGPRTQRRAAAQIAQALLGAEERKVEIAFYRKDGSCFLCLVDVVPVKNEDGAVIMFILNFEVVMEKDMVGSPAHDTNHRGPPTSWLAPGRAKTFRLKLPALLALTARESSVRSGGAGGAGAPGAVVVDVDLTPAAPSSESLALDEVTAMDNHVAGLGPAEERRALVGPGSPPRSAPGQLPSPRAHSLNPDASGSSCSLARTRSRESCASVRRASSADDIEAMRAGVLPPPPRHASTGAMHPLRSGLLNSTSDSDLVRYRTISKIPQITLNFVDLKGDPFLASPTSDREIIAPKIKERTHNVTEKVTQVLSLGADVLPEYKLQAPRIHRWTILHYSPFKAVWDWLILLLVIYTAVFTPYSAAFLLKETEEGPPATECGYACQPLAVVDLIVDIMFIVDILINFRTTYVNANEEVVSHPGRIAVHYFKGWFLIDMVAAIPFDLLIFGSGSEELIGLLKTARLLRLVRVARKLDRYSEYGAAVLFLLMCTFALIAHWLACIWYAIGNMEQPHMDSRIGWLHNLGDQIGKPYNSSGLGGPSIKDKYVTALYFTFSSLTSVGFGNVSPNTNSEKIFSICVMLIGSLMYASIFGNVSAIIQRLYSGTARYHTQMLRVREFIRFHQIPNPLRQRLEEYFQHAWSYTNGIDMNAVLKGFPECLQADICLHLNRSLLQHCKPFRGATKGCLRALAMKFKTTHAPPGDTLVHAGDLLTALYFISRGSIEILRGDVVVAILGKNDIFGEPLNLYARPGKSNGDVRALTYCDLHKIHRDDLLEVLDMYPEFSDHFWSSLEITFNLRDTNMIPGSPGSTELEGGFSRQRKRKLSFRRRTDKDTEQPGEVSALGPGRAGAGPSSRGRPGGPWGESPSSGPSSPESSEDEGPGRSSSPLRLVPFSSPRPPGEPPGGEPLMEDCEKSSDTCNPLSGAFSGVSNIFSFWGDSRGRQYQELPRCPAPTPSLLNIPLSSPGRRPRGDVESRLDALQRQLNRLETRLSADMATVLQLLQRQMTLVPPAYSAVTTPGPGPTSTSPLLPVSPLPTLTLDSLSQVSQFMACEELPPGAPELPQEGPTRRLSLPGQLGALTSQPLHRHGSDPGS
smiles,measurement,setting,value
COc1cc2cc(c1Cl)N(C)C(=O)C[C@H](OC(=O)[C@H](C)N(C)C(=O)CCSSC[C@H](NC(=O)[C@@H]1CSSC[C@H](NC(=O)[C@H](N)Cc3ccccc3)C(=O)N[C@@H](Cc3ccc(O)cc3)C(=O)N[C@H](Cc3c[nH]c4ccccc34)C(=O)N[C@@H](CCCCN)C(=O)N[C@@H]([C@@H](C)O)C(=O)N1)C(N)=O)[C@]1(C)O[C@H]1[C@H](C)[C@@H]1C[C@@](O)(NC(=O)O1)[C@H](OC)/C=C/C=C(\C)C2 [Conjugate 57],inhibition of hERG,[1],no inhibition
same,proliferation of MCF-7 cells,[2],reduces the proliferation of MCF-7 cells
same,activity against the panel of GPCRs,[3],no activity
same,"time of PH3 signal peak, IHC",[4]; 2 mg/kg,48 h
same,time of peak in CC3 activity,[4]; 2 mg/kg,72 h
same,"time of peak response for PH3, Western Blot",[4]; 2 mg/kg,48 h
same,"time of peak of apoptosis as indicated by CC3 levels (fold change, FIG. 21)",[4]; H69,72 h
same,"time of peak of cell arrest as indicated by PH3 levels (fold change, FIG. 21)",[4]; H69,48 h
same,AUC(0-t),"[5]; Dog, 0.1 mg/kg",0.619 µM·h
same,Cmax,"[5]; Dog, 0.1 mg/kg",0.73 µM
same,clearance,"[5]; Dog, 0.1 mg/kg",1.39 mL/min/kg
same,half-life,"[5]; Dog, 0.1 mg/kg",2.86 h
same,Vd,"[5]; Dog, 0.1 mg/kg",0.224 L/kg
same,AUC(0-t),"[5]; Mouse, 2 mg/kg",7.3 µM·h
same,Cmax,"[5]; Mouse, 2 mg/kg",5.93 µM
same,clearance,"[5]; Mouse, 2 mg/kg",2.32 mL/min/kg
same,half-life,"[5]; Mouse, 2 mg/kg",12.2 h
same,Vd,"[5]; Mouse, 2 mg/kg",0.963 L/kg
same,AUC(0-t),"[5]; Rat, 1.5 mg/kg",2.77 µM·h
same,Cmax,"[5]; Rat, 1.5 mg/kg",4.69 µM
same,clearance,"[5]; Rat, 1.5 mg/kg",4.99 mL/min/kg
same,half-life,"[5]; Rat, 1.5 mg/kg",8.07 h
same,Vd,"[5]; Rat, 1.5 mg/kg",0.594 L/kg
same,growth of IMR-32 cells,[6],inhibited the growth of IMR-32 cells
same,SSTR2 internalization distribution of staining,[7]; [10],"significantly different results from BT-984 and naïve at 4 hr, 24 hr, and 72 hours"
same,SSTR2 receptor internalization intensity of staining,[7]; [10],"significantly different results from scrambled peptide version of compound 57 (BT-984) and naïve at 1 hr, 4 hr, and 72 hours"
same,SSTR2 internalization compared with octreotide,"[7]; Conjugate 57 2 mg/kg, Octreotide 1.4 mg/kg",caused more SSTR2 internalization than octreotide alone
same,difference in IC50 with or without octreotide competition,[8],12.2 fold
same,H69 tumor DM-1 levels,[9],243 nM

# Source: patent publication US11160871B2, “SSTR-targeted conjugates and particles and formulations thereof” (TARVEDA THERAPEUTICS, INC., priority 2015, dated 2021)
